Experimental data from article PMC9585388 (Research and Practice in Thrombosis and Haemostasis, 2022).

Target: T1, fibrinogen (UniProt P02671-2;P02675;P02679-2)
T1 sequence 1: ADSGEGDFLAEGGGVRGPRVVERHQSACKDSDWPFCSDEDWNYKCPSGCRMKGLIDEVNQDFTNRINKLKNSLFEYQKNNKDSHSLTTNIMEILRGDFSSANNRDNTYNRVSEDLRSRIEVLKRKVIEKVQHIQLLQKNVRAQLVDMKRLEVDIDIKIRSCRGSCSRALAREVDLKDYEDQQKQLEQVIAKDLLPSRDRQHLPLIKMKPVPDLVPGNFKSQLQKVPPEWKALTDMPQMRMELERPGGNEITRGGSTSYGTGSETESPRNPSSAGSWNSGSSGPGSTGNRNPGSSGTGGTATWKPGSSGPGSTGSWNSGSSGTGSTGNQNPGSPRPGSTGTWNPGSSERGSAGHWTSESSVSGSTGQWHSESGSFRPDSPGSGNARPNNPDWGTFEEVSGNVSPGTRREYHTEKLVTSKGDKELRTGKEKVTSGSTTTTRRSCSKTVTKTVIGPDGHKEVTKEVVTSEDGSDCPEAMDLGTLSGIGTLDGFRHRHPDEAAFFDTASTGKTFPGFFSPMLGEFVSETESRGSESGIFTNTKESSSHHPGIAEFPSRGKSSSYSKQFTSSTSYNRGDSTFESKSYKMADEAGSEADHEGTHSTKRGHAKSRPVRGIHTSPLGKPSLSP
T1 sequence 2: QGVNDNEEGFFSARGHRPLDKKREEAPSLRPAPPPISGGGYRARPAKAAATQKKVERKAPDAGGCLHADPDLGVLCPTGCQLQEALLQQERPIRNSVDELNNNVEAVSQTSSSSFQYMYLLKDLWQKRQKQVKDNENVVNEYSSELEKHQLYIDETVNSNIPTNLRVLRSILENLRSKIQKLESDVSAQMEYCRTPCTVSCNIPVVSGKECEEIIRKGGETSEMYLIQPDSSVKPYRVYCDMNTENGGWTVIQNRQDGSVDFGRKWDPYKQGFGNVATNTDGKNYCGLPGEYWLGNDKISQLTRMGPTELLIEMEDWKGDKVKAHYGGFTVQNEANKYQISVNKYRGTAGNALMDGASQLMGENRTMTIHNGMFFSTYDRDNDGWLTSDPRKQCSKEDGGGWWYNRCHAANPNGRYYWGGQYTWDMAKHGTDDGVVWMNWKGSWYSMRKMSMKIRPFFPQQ
T1 sequence 3: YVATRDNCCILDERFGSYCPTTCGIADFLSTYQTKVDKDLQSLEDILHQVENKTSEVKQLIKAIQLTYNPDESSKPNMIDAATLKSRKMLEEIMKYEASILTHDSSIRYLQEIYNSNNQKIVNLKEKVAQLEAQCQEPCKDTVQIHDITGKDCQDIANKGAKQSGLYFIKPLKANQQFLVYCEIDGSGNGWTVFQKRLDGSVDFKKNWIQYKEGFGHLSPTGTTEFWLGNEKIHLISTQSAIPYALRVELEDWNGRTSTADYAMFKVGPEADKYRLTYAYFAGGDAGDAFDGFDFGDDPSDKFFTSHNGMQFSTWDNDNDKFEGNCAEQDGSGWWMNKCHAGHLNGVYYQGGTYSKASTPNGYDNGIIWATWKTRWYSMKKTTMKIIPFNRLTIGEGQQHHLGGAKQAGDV
Experiment: BLI

B1: recombinant FXIII‐B (natural protein)
chain: EEKPCGFPHVENGRIAQYYYTFKSFYFPMSIDKKLSFFCLAGYTTESGRQEEQTTCTTEGWSPEPRCFKKCTKPDLSNGYISDVKLLYKIQENMRYGCASGYKTTGGKDEEVVQCLSDGWSSQPTCRKEHETCLAPELYNGNYSTTQKTFKVKDKVQYECATGYYTAGGKKTEEVECLTYGWSLTPKCTKLKCSSLRLIENGYFHPVKQTYEEGDVVQFFCHENYYLSGSDLIQCYNFGWYPESPVCEGRRNRCPPPPLPINSKIQTHSTTYRHGEIVHIECELNFEIHGSAEIRCEDGKWTEPPKCIEGQEKVACEEPPFIENGAANLHSKIYYNGDKVTYACKSGYLLHGSNEITCNRGKWTLPPECVENNENCKHPPVVMNGAVADGILASYATGSSVEYRCNEYYLLRGSKISRCEQGKWSSPPVCLEPCTVNVDYMNRNNIEMKWKYEGKVLHGDLIDFVCKQGYDLSPLTPLSELSVQCNRGEVKYPLCTRKESKGMCTSPPLIKHGVIISSTVDTYENGSSVEYRCFDHHFLEGSREAYCLDGMWTTPPLCLEPCTLSFTEMEKNNLLLKWDFDNRPHILHGEYIEFICRGDTYPAELYITGSILRMQCDRGQLKYPRCIPRQSTLSYQEPLRT
B1 was tested, and the Kd was 46.9 nM.
